Measurements taken from the supplement of paper PMC9170038.

System: MS2 coat protein
Assay: apparent KD of MS2 coat protein; designed switch direction (-1 OFF switch, 1 ON switch): -1; higher = weaker reporter binding
How it was run: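 SNAP-549-labelled MS2 coat protein was titrated, doubling from 0.7 or 1.5 nM to 3 µM, over designed RNA switches transcribed on Illumina chips by stalled E. coli RNA polymerase. Runs were done without input, with 200 uM small-molecule ligand, or with an oligonucleotide input. Apparent KD is the per-design median over clusters of curve-fitted normalised fluorescence.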

[1] = Eterna round: R95, input ligand: FMN 200 uM
[2] = Eterna round: R95, input ligand: microRNA oligo, concentration not stated
[3] = Eterna round: R95, input ligand: none
[4] = input ligand: microRNA oligo, concentration not stated

Sequence	apparent KD of MS2 coat protein (input ligand: FMN 200 uM)	apparent KD of MS2 coat protein (input ligand: none)	apparent KD of MS2 coat protein [2]	apparent KD of MS2 coat protein [4]	further results
UUAUACAAGCAAAGAUCCCACAUGAGGAUCACCCAUGUGCUCGUCUUAUAAGGAACUGUGACGAAAGUCACGGUUCC [Mat - Sensor, turn-off var - Eli Mod - D100] (Eterna round: R97, puzzle: Sensor, turn-off variant 1)	36.2 nM	37.2 nM			
UUAUACGGUGAGGAUAUCUCCACUAAAGUGUGAAGAGAAGGCGCUACAUGAGGAUCACCCAUGUCUAUGGGCAG [Ex-6 Malc#16] (puzzle: Exclusion 6)			262 nM		apparent KD of MS2 coat protein [1]: 905 nM; apparent KD of MS2 coat protein [3]: 320 nM
UUAUACGUUGAGGAUAUGUUAUUUAGUAUAGUUACAGAAGGCGAUACAUGAGGAUCACCCAUGUUUAUGGGCAU [Ex-6 Malc#1] (puzzle: Exclusion 6)			196 nM		
UUAUAGUUAGAGGAUAUAUUAAGGUAUGCUUUGAUAGAAGGCUAGACAUGAGGAUCACCCAUGUAUAUUGGGAU [JR_Ex6_Sub075] (Eterna round: R97, puzzle: Exclusion 6)	425 nM	220 nM			
UUAUAUAAUGUGAGGAUAUGCUGGUCCAUAGAUCAGCAGAAGGCACAUGAGGAUCACCCAUGUAGUAAAUUUUA [Mat - Exclusion 4 - JL Mod - D12] (puzzle: Brourd's mod of Exclusion 4)			14.5 nM		apparent KD of MS2 coat protein [1]: 24.2 nM; apparent KD of MS2 coat protein [3]: 14.8 nM
UUAUAUAGUGUGAGGAUAUGCUGGUCCUUGGAUCAGCAGAAGGCACAUGAGGAUCACCCAUGUAGUUAAAUAUA [Mat - Exclusion 4 - JL Mod - D18] (puzzle: Brourd's mod of Exclusion 4)			31.1 nM		apparent KD of MS2 coat protein [1]: 252 nM; apparent KD of MS2 coat protein [3]: 39.5 nM
UUAUAUAGUGUGAGGAUAUGCUGGUCCUUGGAUCAGCAGAAGGCACAUGAGGAUCACCCAUGUAGUUAAAUUUA [Mat - Exclusion 4 - JL Mod - D17] (puzzle: Brourd's mod of Exclusion 4)			27.3 nM		
UUAUAUAGUGUGAGGAUAUGCUGGUCCUUGGAUCAGCAGAAGGCACAUGAGGAUCACCCAUGUAGUUUAUUUUU [Mat - Exclusion 4 - JL Mod - D4] (puzzle: Brourd's mod of Exclusion 4)			25.9 nM		
UUAUCAUGCUUUAGAUCCUACAUGAGGAUCACCCAUGUGCUCGUCUUGUAUCGUUCUGUGUCGUAAGUCUCUGUUCG [mod Jandersonlee designer] (Eterna round: R97, puzzle: Sensor, turn-off variant 1)	924 nM	1390 nM			
UUAUGAGAGCAGGAUAUCUUAUAAGUGUAUUAAAGAGAAGGGCUCACAUGAGGAUCACCCAUGUGGUCCUAGAU [LRO-Excl6-17-mod of 4.86 by jal] (Eterna round: R97, puzzle: Exclusion 6)	106 nM	33.3 nM			
UUAUGAGAGCAGGAUAUCUUAUUUUUUUUUUGUGGAGAAGGGCUCACAUGAGGAUCACCCAUGUGGUCCUAGAU [LRO-Excl6-25-mod of 4.86 by jal] (Eterna round: R97, puzzle: Exclusion 6)	47.4 nM	32.9 nM			
UUAUUAAGUGUGAGGAUAUGCUGGUCCUUGGAUCAGCAGAAGGCACAUGAGGAUCACCCAUGUACAAUAUUUUA [Mat - Exclusion 4 - JL Mod - D29] (puzzle: Brourd's mod of Exclusion 4)			35.8 nM		
UUAUUACAAGCAAGAUCCUACAUGAGGAUCACCCAUGUGCUCGUCUUGUAAGGUACAGUGACGAAAGUCACAGUACC [Sensor 3, v1 - 000] (puzzle: Sensor v3, turn-off variant 1)			302 nM		apparent KD of MS2 coat protein [1]: 24.7 nM; apparent KD of MS2 coat protein [3]: 24.9 nM
UUAUUAUAUGAAGGAUAUACUUAACAUGAGGAUCACCCAUGUGGUGUUGUGAGUGAGUGAGUUUAGUAGAAGGUCAAUGAUUUU [JMF's solution 72] (Eterna round: R96, puzzle: Exclusion NG 2)	1490 nM	428 nM		186 nM	
UUAUUAUAUGUAGGAUAUGCAUAUUGUUGUUAUGCAGAAGGACAUGAGGAUCACCCAUGUAUAUUAUUGUUGUAUAUUAUAUAU [Title] (Eterna round: R96, puzzle: Exclusion NG 1)	37.4 nM	24.1 nM		17.5 nM	
UUAUUGUGUGUAGGAUAUGCGUGUUAUUAUUAUGCAGAAGGACAUGAGGAUCACCCAUGUGUAUUAUUAUUAUAUAUUAUAUAU [Title] (Eterna round: R96, puzzle: Exclusion NG 1)	45.3 nM	27.7 nM		27.2 nM	
UUCACAUGGACAUGAGAUCACAUGAGGAUCACCCAUGUGAAUAACAAGCUUUUUGUUCGUCUUAUGUCCAAUAAUAU [Stov1/14-D2] (Eterna round: R97, puzzle: Sensor, turn-off variant 1)	13.7 nM	10.5 nM			

Sequence	apparent KD of MS2 coat protein (input ligand: FMN 200 uM)	apparent KD of MS2 coat protein (input ligand: none)	apparent KD of MS2 coat protein [2]	apparent KD of MS2 coat protein [4]	further results
UUCAUGUGAGGAUAUGUGAUCUGCUUUCUGUUUAGAUGAUCACAGAAGGCACAUGAGGAUCACCCAUGUAGAUC [Ex4 - 3 - 30] (puzzle: Exclusion 4)			60.5 nM		
UUCCCACAUGAGGAUCACCCAUGUGAGGAUAUGGAGCGCGACCGCGCGGUCGCGUACACCAGAAGGCGCAUGAU [1st #80] (Eterna round: R97, puzzle: Exclusion 1)	21 nM	16.2 nM			
UUGAACAUAGGAUAUAGUUGUUUGUACAUGAGGAUCACCCAUGUUAGGGAUGUUUUGUUUCUAGAAGGAUGUUGAU [JR_E5_Sub001] (puzzle: Exclusion 5)			128 nM		
UUGAAGUCAUCAGGAUAUAGUUUUAAUGUCAUGCUUAAGUUCUUACAUGAGGAUCACCCAUGUCGCUAGAAGGGAUUAUAGAUU [JR_ExcNG2_Sub078] (Eterna round: R96, puzzle: Exclusion NG 2)	66.8 nM	67.7 nM		42.6 nM	
UUGAAUUAACAGGAUAUGGGAGUCGAUAGACACCCAGAAGGGUUAACAUGAGGAUCACCCAUGUGUCCUAUCAA [Mod of Eli 23 - Jieux - Exclusion 6] (Eterna round: R97, puzzle: Exclusion 6)	94.8 nM	36.5 nM			
UUGACGGCAGGAUAUACAUGAGGAUCACCCAUGUAAAUUUUUCGUUUAACUUGAAUGUGUAGAAGGGCCCAACC [Ex3 #78] (Eterna round: R97, puzzle: Exclusion 3)	16.6 nM	17.8 nM			
UUGGAGAGAGGAUAUCCCUAGUUUAACAUGAGGAUCACCCAUGUGCGCGUCAAGUCGAAAGGAGAAGGUUCGGCGA [Eternabot (L1) Solution 5] (Eterna round: R97, puzzle: Exclusion 5)	32.7 nM	26.8 nM			
UUGGAGAUAGGAUAUACGAGGAGAGUUGAGGGAAGGUGAUGACAUGAGGAUCACCCAUGUAGAAGGAUCAGGAG [JR_Exclu2_Sub069] (Eterna round: R96, puzzle: Exclusion 2)	169 nM	172 nM		98.8 nM	
UUGGAGAUAGGAUAUACGAGGAGAGUUGAGGGAAGGUGAUGACAUGAGGAUCACCCAUGUAGAAGGAUCAGGAG [JR_Exclu2_Sub069] (puzzle: Exclusion 2)			118 nM		
UUGUAACGAUUAGGAUAUUAUUAAUAGAACUUUAUGAUAUACAUGAGGAUCACCCAUGUUACUUUUAAGAAGGAAUCGUAUUAU [JR_ExcNG2_Sub091] (Eterna round: R96, puzzle: Exclusion NG 2)				17 nM	
UUGUACCGGUGAGGAUAUUUUUAAUAGAGCUUUAUGAUAUACAUGAGGAUCACCCAUGUUACGUUAAAGAAGGCAUCGGAUUAU [JL JR Sub091 mod 4] (Eterna round: R96, puzzle: Exclusion NG 2)	18.6 nM	21.6 nM		13.9 nM	
UUGUACCGGUGAGGAUAUUUUUGAUAGAACUUUAUGAUAUACAUGAGGAUCACCCAUGUUACUUUAAAGAAGGCAUCGGAUUAU [JL JR Sub091 mod 2] (Eterna round: R96, puzzle: Exclusion NG 2)				14.3 nM	
UUGUCUAAUGUGAGGAUAUGCUGGUCCAUAGAUCAGCAGAAGGCACAUGAGGAUCACCCAUGUGAUAACACAAU (Eterna round: R97, puzzle: Brourd's mod of Exclusion 4)	296 nM	21.3 nM			
UUGUUAUAUGUAGGAUAUGCGUAUUAUUAUUAUGCAGAAGGACAUGAGGAUCACCCAUGUAUAUUAUUAUUAUAUAUUAUAUAU [Title] (Eterna round: R96, puzzle: Exclusion NG 1)				21.9 nM	
UUGUUCUGAGGAUAUACAUGAGGAUCACCCAUGUGUUUCUGCUUGGAGACUAGCGAAUGUAGAAGGCUGUUCUC [salish99_ex3_r4_021] (Eterna round: R97, puzzle: Exclusion 3)	15.2 nM	14.2 nM			
UUGUUGUAUGUAGGAUAUGCGUAUUAUUAUUAUGCAGAAGGACAUGAGGAUCACCCAUGUGUAUUAUUAUUAUAUAUUAUAUAU [Title] (Eterna round: R96, puzzle: Exclusion NG 1)	44.3 nM	19.7 nM		20.8 nM	
UUGUUUUCCGCAGGAUAUGCUCCUCUAUUACUAGCAGAAGGGCGUUGAACAUGAGGAUCACCCAUGUAUGUAAUUGCUUAUUGC [JR_ExcNG1_Sub074] (Eterna round: R96, puzzle: Exclusion NG 1)	19.3 nM	24.4 nM		17.5 nM	
